Test system: K4 kissing-loop RNA reporter
Experiment: apparent KD of K4 kissing-loop reporter; higher = weaker reporter binding
Conditions: Eterna round: R107
Experimental: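 RNA-MaP round R107: designed RNA switches with theophylline, tryptophan, arginine or FMN aptamers are transcribed on-chip within common flanks. They are titrated with a labelled K4 kissing-loop RNA reporter in RNA-MaP buffer (100 mM Tris pH 7.5, 80 mM KCl, 4 mM MgCl2), without ligand or with the indicated ligand. Median apparent KD per design.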

[1] = input ligand: theophylline 20 uM
[2] = input ligand: tryptophan 2.4 mM
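Also: bound reporter read as fluorescence of individual clusters on recovered sequencing chips by microscopy, with normalized cluster intensities fitted with a binding model.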

Sequence | apparent KD of K4 kissing-loop reporter (input ligand: FMN 200 uM) | apparent KD of K4 kissing-loop reporter (input ligand: arginine 13.2 mM) | apparent KD of K4 kissing-loop reporter (input ligand: none) | apparent KD of K4 kissing-loop reporter [1] | apparent KD of K4 kissing-loop reporter [2]
UUUCUACCGGGAAGGAGCGUGAAUGAUAAUGGAUAUAGUGAUGUUAUAUAUACGAACGAAUCGCAGGUAGGUCGCCCGGAUCCCU [SSArgB.V] | 492 nM | 594 nM | 593 nM | 549 nM | 496 nM
CCAUCGCUAUUCGAUACCAGCUCCUUAGUGAUGUUGAGGUUUUACCCACUGUAGGUGGGAAGCCCUUGGCAGCGAAUAGUGAUGG [Theophylline B K4 29] | 523 nM | 217 nM | 430 nM | 480 nM | 816 nM
AUUAAUUUCAGAGGAUAUCGUAUUAAUAUUUUAUCUAUCUAUAUAUGCAGUGAUGUUGCAAUAAUUCGAGAAGGCUGAUUUAUAA [JR_ExcFMNB_Sub009] | 93.9 nM | 101 nM | 52.3 nM | 91.8 nM | 47.7 nM
GUAUGUGGAAACACGUACUUGUAUCCUAAGCAGGAUAUGCGGAAACGCAGAAGGGCUACCAACGAGUUUAUCCAGUGAUGUUGGA [Ex FMN A 13] | 507 nM | 298 nM | 332 nM | 393 nM | 455 nM
AGGAGCGUGGGAUGCAAAUCGCACGCUCCUCGAGGACCGGUACGGCCGCCACUCGCUCGCGCCGAGUGAUGUUCGGCCGGCGAAC [#2 Same State - Tryptophan A Attempt #14 (HarryS)] | 221 nM | 232 nM | 247 nM | 266 nM | 407 nM
CAGGUCACAGAGUGAUGUUCUGUGUCCGAAGGAGCGAUGGUCGCAUCAGGUAGGUCGCGGAUACAGUUGAAGUCCUAUCUAGACG [#10 K4 Arginine A Exclusion] | 143 nM | 111 nM | 119 nM | 123 nM | 134 nM
UGUGAACAAAAGUAGAGUGGACCACUAUAGCGAGGACCGGUACGGCCGCCACUCGUAUAUGAAUUCAGUGAUGUUGAAAAGAGCU [whbob_EX_Tryp_A_t10] | 180 nM | 281 nM | 231 nM | 306 nM | 165 nM
UGACAUUGCUCAGAUACCAGACUUGAGGAACACCCAAGUGCCAAAACGUACUAAAUAAAAGUCCCUUGGCAGCUGAGCAAUGUCU [TheoBX 13] | 91.5 nM | 30.6 nM | 46.2 nM | 60.9 nM | 59.4 nM
AAAUAAAGCAGUCACCCAGUGAUGUUGGAAGGAGCGUGCGAAAGCACAGGUAGGUCGCCAAAAUAAAAGUGGCUGCGGCAAAGCC [#SwitchBubble 24 #K4Early] | 627 nM | 283 nM | 492 nM | 338 nM | 222 nM
GCUACCUAGGCAGGAUAUCGUAUUGAGUGAUGUUCAAUAACGGUCUACCAAAGGUAGACCGACCUUCGAGAAGGGCCUAGGUAGC | 143 nM | 163 nM | 193 nM | 174 nM | 166 nM
GCACGAGUGAUGUUCGUUGGCAUGCAUUCCGAGGAUAUGGGAUUAGCCAGAAGGCGGAAUCGGUCUUCGAGUGAUGUUCGAAGAU [Same State FMN A GF 13] | 104 nM | 87.8 nM | 113 nM | 87.2 nM | 109 nM
ACAUGUGCCAGUGAUGUUGGCGUACGUGAUACCAGACGAAUAAAAGUCCCUUGGCAGCACAAAUAAGCCAAGAUAGAUGAAUGAU [#03 K4 Theophylline A Exclusion] | 191 nM | 159 nM | 203 nM | 242 nM | 189 nM
UUUUAUUAAUACUUCUAGUGAUGUUAGAUACGAGGACCGGUACGGCCGCCACUCGCUUAUUGGUUUAUAUAUUUUUUAUUCUUUA [JR_SSTryptoA_Sub013] | 276 nM | 349 nM | 316 nM | 353 nM | 263 nM
AACUGUCAAGGACAACAUUACUGGAGUGAUACCAGCAUCGAAAGAUGCCCUUGGCAGCACUAACUUGCAGUGAUGUUGCAAGUAA [BrourdMod 6 - Jieux - Exclusion - Theophylline A] | 208 nM | 174 nM | 196 nM | 192 nM | 191 nM
AAUAAAAUCACGGCCGCCACUGAUGUUAAUAUUAGCAGUGAUGUUGCUAUGUCGUUUUUAUUUAACAGGACCGGGUGAAUAUUUA [JR_ExcTryptoB_Sub013] | 183 nM | 182 nM | 171 nM | 188 nM | 154 nM
UUUGGUAGCGGUGUUGAUUAGGGAGCGGAAGGAGCGCCGAGGAGGGCAGGUAGGUCGCCGGAAUGUAGUGAUGUUGCAUAGAGGU [ExArgA.Ab] | 269 nM | 227 nM | 253 nM | 574 nM | 214 nM

Sequence | apparent KD of K4 kissing-loop reporter (input ligand: FMN 200 uM) | apparent KD of K4 kissing-loop reporter (input ligand: arginine 13.2 mM) | apparent KD of K4 kissing-loop reporter (input ligand: none) | apparent KD of K4 kissing-loop reporter [1] | apparent KD of K4 kissing-loop reporter [2]
CCGCCAUCAUCAGAUACCAGGCUGAUGGCGGUAACCGCCAAGCGAGUGAUGUUCGCAUCAGUCCCUUGGCAGCUGAUGAAGACUG [#15 K4 Theophylline B Same State] | 194 nM | 94.3 nM | 146 nM | 155 nM | 95.2 nM
GCUAUGGUAGGAAGGAGCGCUUAUUUAUUAAUAAGAGUGAUGUUCGAUAAUAAAUAUUUAUAGCAGGUAGGUCGCCUACUAUAGC [Arginine B K4 1] | 225 nM | 219 nM | 232 nM | 227 nM | 204 nM
GCAGCAAAUAAACGAGUGAUGUUCGACGAUACCAGCCUCGAUAGAGGCCCUUGGCAGCGUAAAUGAUCACAAAGCCAAGGGCUGC [#SwitchBubble 1] | 332 nM | 375 nM | 396 nM | 366 nM | 362 nM
AUAAUCUUGCAGUGAUGUUGCAAGAAAGCUCAGGAUAUCAGGAAACUGAGAAGGGAGCAUCCUGAGCACUUGCAACAGUGCUCAG [[K1]-[K2]-[F1]-[F2]-[F]'-[K]'-[F]''_Design3] | 127 nM | 100 nM | 296 nM | 288 nM | 117 nM
CUUGGUCUACGAAGGAGCGCCGUGCAGUGAUGUUGCAGUCAGAUCGAGUGAUGUUUCGGGCGGCAGGUAGGUCGCGUGGCCCUCU [Excusion Arginine B GF 27] | 574 nM | 437 nM | 725 nM | 692 nM | 591 nM
AGUGAUGUGGGAAGGAGCGCUACAAGACUUCAGUGAUGUUGAAGUGAUGUUUUAGUGUUGUAGCAGGUAGGUCGCCUAGAUGUUA [KL-XARG-B10] | 71.2 nM | 31.9 nM | 42.5 nM | 45.7 nM | 43.7 nM
UUGUUUUACUGAAGGAGCGGCAAUUGAUACGUAGAUAUAGUGAUGUUAUAUAAGAUAGAGAGCCAGGUAGGUCGCAGAGGUGUUU [ExArgB.S] | 176 nM | 150 nM | 210 nM | 180 nM | 168 nM
AUAGGAGUGAUGUUCCUUAGUUUCUCCGAUACCAGUAUGGAAACAUACCCUUGGCAGCGGUAAACCGCAGAUUAGGAAACUAGUC [Theophylline A K4 2] | 308 nM | 332 nM | 324 nM | 241 nM | 297 nM
ACAUUUUCAAGUGAUACCAGACAUUUUUUUUUCUUUAUUUAUGCUAAGUGAUGUUUAGCAGUCCCUUGGCAGCACUAUUUAACUA [JR_Nu_SSTheophyB_Sub031] | 121 nM | 101 nM | 93.2 nM | 169 nM | 115 nM
UAGUCCUCUUCUUAUUUAUUCCCUAAUGCUAAGGAUAUCCGAAUUCGGAGAAGGUAGUGAUGUUACUUGAAGGGACAUAUUUAUU [AK6 Exc FMN A] | 412 nM | 554 nM | 684 nM | 771 nM | 617 nM
CGAGUCGGUUCAGAUACCAGCCAAUUAAAGUCGAGUGAUGUUCGACAAUGAACGUCCAAAGGCCCUUGGCAGCUGAAUUGGGAAC [Same State Theophylline B GF 19] | 216 nM | 107 nM | 191 nM | 250 nM | 122 nM
AAUAAGCGUGGAAGGAGCGUCGUCCAGUGAUGUUGGAGUUAGAUACCAGUGAUGUUGGUUAGGCAGGUAGGUCGCCGCAAAGCUU [Exclusion Arginine B Gf 7] | 96.8 nM | 67.6 nM | 90.8 nM | 86.3 nM | 81 nM
GCACUCGAAAGAGUGCCUCUCGCCAUCACGUAGGAUAUCUGGAAACAGAGAAGGAUGGCAGUGAUGUUGCUUUCGAUGGCGAGAG | 165 nM | 137 nM | 180 nM | 174 nM | 188 nM
GUAGUCGUACCUUCAGUGAUGUUGAAGGAUACCAGAUGUUACCACAUCCCUUGGCAGCCUUGGGAUAACAGUGAGUUGGAAUAUG [Soonusa] | 161 nM | 127 nM | 159 nM | 138 nM | 160 nM
UGAUACCAGACGGCCGCCACUGCACCAGUCAAUGACUGAGUGUAGUAUUGCUCAGUGAUGUUGAGUAGGACCGGGUCUGGUAUCU [Mod of Eli's TrypBX 8] | 109 nM | 113 nM | 108 nM | 128 nM | 115 nM
AAGCCCAGUGAUGUUGGAAGCGCGUACGAUACCAGCGAAUCGGAACGCCCUUGGCAGCGUACAGAGUUGGCGGAAGAUAGGACAG [theeternabot_sameState_KL_Theo_A_14] | 548 nM | 507 nM | 643 nM | 637 nM | 527 nM
